Results published in patent publication US7666414B2.

Biological target: prostate specific membrane antigen (PSMA) on LNCaP cells (human) (UniProt Q04609)

irrelevant IgG antibody
tumor uptake of the 131I-labelled antibody in nude mice bearing LNCaP tumors, one day post injection (% injected dose/gram) (% injected dose/gram): 4.41
